In this test the target is GABAA receptor γ2 subunit (rat (endogenous in hippocampus), UniProt P18508 39-466). Kind of test: co-IP.
Chain of GABAA receptor γ2 subunit (P18508 39-466): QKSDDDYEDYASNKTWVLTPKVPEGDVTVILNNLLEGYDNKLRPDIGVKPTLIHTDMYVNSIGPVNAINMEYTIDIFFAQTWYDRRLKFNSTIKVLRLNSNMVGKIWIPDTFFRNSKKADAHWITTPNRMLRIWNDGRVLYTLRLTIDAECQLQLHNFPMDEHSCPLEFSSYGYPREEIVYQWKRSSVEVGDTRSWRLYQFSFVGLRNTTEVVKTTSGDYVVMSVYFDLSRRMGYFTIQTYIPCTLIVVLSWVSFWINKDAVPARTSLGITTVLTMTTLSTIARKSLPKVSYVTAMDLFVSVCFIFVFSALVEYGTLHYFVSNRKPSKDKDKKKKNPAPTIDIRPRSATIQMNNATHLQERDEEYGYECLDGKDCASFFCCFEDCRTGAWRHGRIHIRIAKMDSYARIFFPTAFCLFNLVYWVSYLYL

B1: GABAA receptor α4 subunit (natural protein, rat (endogenous in hippocampus), UniProt P28471 36-552, looked up)
chain: QNSKDEKLCPENFTRILDSLLDGYDNRLRPGFGGPVTEVKTDIYVTSFGPVSDVEMEYTMDVFFRQTWIDKRLKYDGPIEILRLNNMMVTKVWTPDTFFRNGKKSVSHNMTAPNKLFRIMRNGTILYTMRLTISAECPMRLVDFPMDGHACPLKFGSYAYPKSEMIYTWTKGPEKSVEVPKESSSLVQYDLIGQTVSSETIKSITGEYIVMTVYFHLRRKMGYFMIQTYIPCIMTVILSQVSFWINKESVPARTVFGITTVLTMTTLSISARHSLPKVSYATAMDWFIAVCFAFVFSALIEFAAVNYFTNIQMQKAKKKISKPPPEVPAAPVLKEKHTETSLQNTHANLNMRKRTNALVHSESDVNSRTEVGNHSSKTTAAQESSETTPKAHLASSPNPFSRANAAETISAAARGLSSAASPSPHGTLQPAPLRSASARPAFGARLGRIKTTVNTTGVPGNVSATPPPSAPPPSGSGTSKIDKYARILFPVTFGAFNMVYWVVYLSKDTMEKSESLM
Consider B1, for which the “ratio of the α4-γ2 co-precipitation (normalised α4 to γ2), control animals” value worked out at 0.55 ± 0.02 and the “ratio of the α4-γ2 co-precipitation (normalised α4 to γ2), epileptic animals” value came out at 1.12 ± 0.24.

For the origin of these results see publication PMC2940226 (Neurobiology of disease, 2010).
